{"source": "paper PMC8155666", "about": "“Engineering Promiscuous Alcohol Dehydrogenase Activity of a Reductive Aminase AspRedAm for Selective Reduction of Biobased Furans” (Frontiers in Chemistry, 2021)", "key": {"O=Cc1ccc(CO)o1": {"system": "T1, O=Cc1ccc(CO)o1", "T1 construct": "recombinant, purified", "test": "purified protein", "type": "biochemical, Aspergillus oryzae", "settings": "0.2 mM NADH, 100 mM Tris-HCl pH 8, 30°C, 1 μM-5 mM HMF, 37 μg/ml enzyme"}, "purified protein": {"substrate": "O=Cc1ccc(CO)o1", "test": "purified protein", "settings": "0.2 mM NADH, 100 mM Tris-HCl pH 9, 30°C, 1 μM-5 mM HMF, 43 μg/ml enzyme"}}}
{"molecule": "AspRedAm (Aspergillus oryzae RIB40; N93A)", "values": [{"measurement": "Km", "setting": "O=Cc1ccc(CO)o1", "result": "4.1 ± 0.7 ×10^-3 mM"}, {"measurement": "kcat", "setting": "O=Cc1ccc(CO)o1", "result": "0.0967 ± 0.0076", "unit": "s⁻¹"}, {"measurement": "kcat/Km", "setting": "O=Cc1ccc(CO)o1", "result": "23600 ± 2000", "unit": "M⁻¹ s⁻¹"}]}
{"molecule": "AspRedAm (Aspergillus oryzae RIB40) (protein) MSKHIGIFGLGAMGTALAAKYLEHGYKTSVWNRTTAKAIPLVEQGAKLASTISEGVNANDLIIICLLNNQVVEDALRDALQTLPSKTIVNLTNGTPNQARKLADFVTSHGARYIHGGIMAVPTMIGSPHAVLLYSGESLELFQSIESHLSLLGMSKYLGTDAGSASLHDLALLSGMYGLFSGFLHAVALIKSGQDTSTTATGLLPLLTPWLSAMTGYLSSIAKQIDDGDYATQGSNLGMQLAGVENIIRAGEEQRVSSQMILPIKALIEQAVGEGHGGEDLSALIEYFKVGKNVD", "values": [{"measurement": "Km", "setting": "purified protein", "result": "1.3 ± 0.2 ×10^-3 mM"}, {"measurement": "kcat", "setting": "purified protein", "result": 0.0175, "unit": "s⁻¹"}, {"measurement": "kcat/Km", "setting": "purified protein", "result": 13100, "unit": "M⁻¹ s⁻¹"}]}
